# From US20060148030A1, “Nuclear receptor err y 3” (FUJISAWA PHARMACEUTICAL CO., LTD, priority 2002, published 2006)
# T1: ERα (Homo sapiens, UniProt P03372)
# T1 construct: expressed in transfected cells; host or cells: CV-1 (African green monkey kidney)
# T1 sequence (P03372 1-595): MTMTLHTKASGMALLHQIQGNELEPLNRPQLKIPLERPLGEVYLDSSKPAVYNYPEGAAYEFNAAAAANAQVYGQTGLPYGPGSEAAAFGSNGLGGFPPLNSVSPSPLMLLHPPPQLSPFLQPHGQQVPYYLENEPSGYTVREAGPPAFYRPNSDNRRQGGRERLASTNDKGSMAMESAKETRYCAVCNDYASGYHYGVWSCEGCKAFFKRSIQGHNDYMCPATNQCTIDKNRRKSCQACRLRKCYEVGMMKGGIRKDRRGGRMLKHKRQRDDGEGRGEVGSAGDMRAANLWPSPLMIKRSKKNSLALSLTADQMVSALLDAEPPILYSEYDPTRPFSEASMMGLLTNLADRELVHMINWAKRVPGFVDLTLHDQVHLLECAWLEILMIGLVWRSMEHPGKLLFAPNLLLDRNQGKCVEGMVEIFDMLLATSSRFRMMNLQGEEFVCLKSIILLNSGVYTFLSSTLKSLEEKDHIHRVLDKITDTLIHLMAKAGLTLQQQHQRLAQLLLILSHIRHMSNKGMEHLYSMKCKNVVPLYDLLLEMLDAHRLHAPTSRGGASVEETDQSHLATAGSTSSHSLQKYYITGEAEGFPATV
# B1: ERRγ2: known human ERRγ isoform, the long form (SEQ ID NO: 6) (protein, listed as Homo sapiens)
# chain: MDSVELCLPESFSLHYEEELLCRMSNKDRHIDSSCSSFIKTEPSSPASLTDSVNHHSPGGSSDASGSYSSTMNGHQNGLDSPPLYPSAPILGGSGPVRKLYDDCSSTIVEDPQTKCEYMLNSMPKRLCLVCGDIASGYHYGVASCEACKAFFKRTIQGNIEYSCPATNECEITKRRRKSCQACRFMKCLKVGMLKEGVRLDRVRGGRQKYKRRIDAENSPYLNPQLVQPAKKPYNKIVSHLLVAEPEKIYAMPDPTVPDSDIKALTTLCDLADRELVVIIGWAKHIPGFSTLSLADQMSLLQSAWMEILILGVVYRSLSFEDELVYADDYIMDEDQSKLAGLLDLNNAILQLVKKYKSMKLEKEEFVTLKAIALANSDSMHIEDVEAVQKLQDVLHEALQDYEAGQHMEDPRRAGKMLMTLPLLRQTSTKAVQHFYNIKLEGKVPMHKLFLEMLEAKV
# Target: T1, ERα
# Test: Reporter gene assay, ERRγ3 or ERRγ2 coexisted with ERα in CV-1 cells
# Type: cell-based
# Conditions: ERRγ2 with ERα, CV-1 cells; FIGS. 19-20
# Procedure: The reporter gene assay was performed using CV-1 cells (African green monkey kidney-derived cell line) as hosts. Host cells were transfected with luciferase reporter plasmids and expression plasmids for ERRγ3, ERRγ2, or both. They were then exposed to 4-hydroxytamoxifen at different concentrations (0, 10^−10 to −10^−5 M) for 24 hours, whereupon luciferase activity within the cells was measured.
# Transfection was performed as follows: CV-1 cells were suspended at 2×10^5 cells/2.5 ml in DMEM medium supplemented with 10% fetal bovine serum, 2000 U/l of penicillin G, and 100 mg/l streptomycin. These cells were seeded to a 6-well plate at 2.5 ml/well, and cultured for 18 to 24 hours in a CO2 incubator at 37° C. in the presence of 5% CO2. 1 μg of each of the transcription factor expression plasmid, the luciferase reporter plasmid, and another luciferase reporter plasmid for normalizing the measured value (pRL-TK), were dissolved in Opti-MEM (Gibco BRL) to total of 150 μl. 7 μl of the cell transfection reagent LipofectAMINE 2000 (Gibco BRL) was diluted in 143 μl of Opti-MEM, and this was added to the mixture drop by drop while stirring. The mixture was incubated for 20 minutes.
# The LipofectAMINE-DNA mixture was diluted in 1.5 ml of Opti-MEM, and added to cells that had been twice washed with 1 ml of PBS(−). The cells were cultured for four hours. The transfection reagent was removed from the culture, and 200 μl of trypsin/EDTA was added to the cells, which were then incubated at 37° C. for five minutes. […] of DMEM was added to suspend the cells, which were transferred to a centrifuge tube, and centrifuged for three minutes at 1000 rpm. After centrifugation, the cells were resuspended in DMEM to a concentration of 1.6×10^4 cells/100 μl, and 100 μl samples were seeded to a 96-well plate. When evaluating agents, a two-fold concentrated solution was made by pre-diluting a 1000 times concentrated agent DMSO solution with culture medium. 50 μl of the solution was mixed with 50 μl of a cell suspension at 1.6×10^4 cells/50 μl, and the culture was incubated in a CO2 incubator at 37° C. and 5% CO2 for 24 hours.
# Luciferase activity was measured using the Dual-Luciferase™ Reporter Assay System (Promega). The culture supernatant was removed from each well of the 96-well plate and washed once with 100 μl of PBS(−). 20 μl of ×1 PLB (Passive Lysis Buffer) was added, and the mixture was incubated at room temperature for 15 minutes, and then stored at −20° C. in the freezer until use. […] The protocol for measurement was as follows: 50 μl of Luciferase Assay Reagent II was added to each well, stirred for 0.3 seconds and measured for one second. […] of Stop&Glo™ Reagent was then added, stirred for 0.3 seconds, and measured for one second. […] Average values and standard errors were calculated from triplicate samples.
# To confirm whether or not ERRγ3 can regulate the transcription-controlling function of nuclear receptors other than ERRγ2, ERRγ3's function of regulating the transcription-controlling activity of nuclear receptors related to ERRγ (ERα, ERβ, and TR) was evaluated using a reporter gene assay. […] In addition to 4-hydroxytamoxifen, the cells were also contacted with 10^−5 M of (R)-estradiol in experiments related to ERα and ERβ, and 10^−5 M of thyroxine in the experiment related to TR.
# The transfected cells were contacted with varying concentrations of 4-hydroxytamoxifen in the absence of […] or presence of 10^−7 M of β-estradiol.
molecule,measurement,value
B1,enhancement of transcription when ERRγ2 coexisted with ERα,showed the function of enhancing transcription
